Measured values published in PMC10470402.

Target: S. pombe HT-Gemin2 (S. pombe) (UniProt P0CU08)
Experiment: pull-down

Sequence of S. pombe HT-Gemin2 (S. pombe) (P0CU08 whole entry): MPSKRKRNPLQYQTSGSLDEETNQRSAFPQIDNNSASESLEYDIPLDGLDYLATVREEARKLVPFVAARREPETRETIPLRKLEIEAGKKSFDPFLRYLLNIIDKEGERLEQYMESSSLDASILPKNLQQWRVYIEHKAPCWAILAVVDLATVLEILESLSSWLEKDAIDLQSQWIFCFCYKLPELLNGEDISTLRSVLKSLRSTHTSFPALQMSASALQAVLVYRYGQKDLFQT

Substance | percent bound [%] | percent bound (D1/D2 and F/E/G added together) [%]
S. pombe SmD1/SmD2 subcomplex, HT-tag removed (from UniProt O42661 1-117; O14036 1-115) | 4.1 | 15.1
S. pombe SmF/SmE/SmG subcomplex, HT-tag removed (from UniProt O59734 1-78; Q9USZ3 1-84; O74966 1-77) | 7.4 | 9.2
